Test results published in US20210363215A1 (published 2021).
Each block holds one binder with its values, some of them ahead of it.

Molecular target: T1, MAGE-B2 (peptide MB2-231) peptide on HLA-A*02:01 (human)
T1 peptide: GVYDGEEHSV
Assay: multimer staining

binding result: recognises
B1: MAGE-B2 TCR of SEQ ID NOs 3 and 5 (TCR, V domains shown)
Valpha: GNSVTQMEGPVTLSEEAFLTINCTYTATGYPSLFWYVQYPGEGLQLLLKATKADDKGSNKGFEATYRKETTSFHLEKGSVQVSDSAVYFCALTNDYKLSFGAGTTVTVRA
Vbeta: DAMVIQNPRYQVTQFGKPVTLSCSQTLNHNVMYWYQQKSSQAPKLLFHYYDKDFNNEADTPDNFQSRRPNTSFCFLDIRSPGLGDAAMYLCATSRGGRYNEQFFGPGTRLTVL

binding result: recognises
B2: MAGE-B2-231 C5 TCR (TCR, V domains shown)
Valpha: KNQVEQSPQSLIILEGKNCTLQCNYTVSPFSNLRWYKQDTGRGPVSLTIMTFSENTKSNGRYTATLDADTKQSSLHITASQLSDSASYICVVISGFQKLVFGTGTRLLVSP
Vbeta: EAGVVQSPRYKIIEKKQPVAFWCNPISGHNTLYWYRQNLGQGPELLIRYENEEAVDDSQLPKDRFSAERLKGVDSTLKIQPAELGDSAVYLCASSFPKQGSYNEQFFGPGTRLTVL
